Data taken from paper PMC9026278.

What was measured:
Test in all cases: SPR
[1] = biological target: CH2-4.10 N299A aglycosylated anti-mesothelin human IgG1 antibody (human)
[2] = biological target: CH2-4.16 N298A aglycosylated anti-mesothelin human IgG1 antibody (human)
[3] = biological target: CH2-4.20 N300A aglycosylated anti-mesothelin human IgG1 antibody (human)
[4] = biological target: CH2-4.16 N298A-tubulysin (MSLN, huG1)
[5] = biological target: CH2-4.15 N297A aglycosylated anti-mesothelin human IgG1 antibody (human)
[6] = biological target: CH2-4.19 N301A aglycosylated anti-mesothelin human IgG1 antibody (human)
[7] = biological target: N297A aglycosylated anti-mesothelin human IgG1 antibody (human)

fold weaker binding than the corresponding glycosylated species [1]: 100 fold | fold weaker binding than the corresponding glycosylated species [2]: 100 fold | fold weaker binding than the corresponding glycosylated species [3]: 100 fold | Kd [4]: 172 nM | fold weaker binding than the corresponding glycosylated species [5]: 100 fold | fold weaker binding than the corresponding glycosylated species [6]: 100 fold | fold weaker binding than the corresponding glycosylated species [7]: 100 fold
Substance: hCD64 (from UniProt P12314 16-374) (receptor)
